Measured values taken from US12397061B2, “Systems, methods, and compositions for the generation of water-soluble cannabinoids utilizing fatty-acid binding proteins and fatty-acid binding-like proteins as cannabinoid-carriers” (Trait Biosciences, Inc., priority 2019, dated 2025).

Assays:
cannabinoid receptor = conditions: cited from earlier work
[1] = FABP binding to cannabinoids by ANS displacement (CBD as ligand); conditions: for binding to CBD by ANS displacement: 2 uM protein, 20 uM ANS, 33 uM CBD, decrease in fluorescence vs protein without ligand
[2] = FABP binding to cannabinoids by ANS displacement (THC as ligand); conditions: for binding to THC by ANS displacement: 2 uM protein, 20 uM ANS, 33 uM THC, decrease in fluorescence vs protein without ligand
[3] = listed as Wild type FABP from chicken

Row | Molecule | binding to CBD by ANS displacement [1] | binding to THC by ANS displacement [2] | also measured
1 | C=C(C)[C@@H]1CCC(C)=C[C@H]1c1c(O)cc(CCCCC)cc1O [CBD, cannabidiol] |  |  | affinity for the cannabinoid receptor (cannabinoid receptor): do not have significant affinity
2 | mdl_r5_1652_ro: Rosetta-engineered pig (Sus scrofa) FABP1 variant, SEQ ID NO. 81 (protein, listed as Sus scrofa) MNFSGKYQVQSQENFEAFMKAVGQPDELIQKGKDIKGTSEIVQNGKHFKVTITTGSKVVQAEFTLGEECEAETDTGEKVKVVVQLEGDNKAVVTAKGIKAVFELNGDIITATATLGDIVFKRISKR |  |  | binding to CBD relative to the wild type based on relative change in fluorescence ([1]; FIG. 7, ANS displacement): improved binding; binding to THC relative to the wild type based on relative change in fluorescence ([2]; FIG. 7, ANS displacement): improved binding
3 | mdl_r3_1403_sm: Engineered chicken (Gallus gallus) FABP7 variant selected by Smina score, SEQ ID NO. 80 (protein, listed as Gallus gallus) MVEAFCATWKLADSHNQDEGLKALGVGFAMRQLFNVDKPTVIISSEGDKVVIRIEGTVKNTEISFKLGEEFDETTADDRNCKSVVTLDGDKLVHVQKWDGKETNVVREIKDGRMVATFTFGDVVAVAHYEKA | no binding | no binding | 
4 | Chicken FABP7 WT: Wild type chicken (Gallus gallus) FABP7, SEQ ID NO. 74 (protein, listed as Gallus gallus) MVEAFCATWKLADSHNFDEYMKALGVGFAMRQVGNVTKPTVIISSEGDKVVIRTQSTFKNTEISFKLGEEFDETTPDDRNCKSVVTLDGDKLVHVQKWDGKETNFVREIKDGRMVMTLTFGDVVAVRHYEKA | no, or negligible binding | no, or negligible binding | binding to CBD by ANS displacement [1, 3]: no binding; binding to THC by ANS displacement [2, 3]: no binding
5 | mdl_r5_0225_ro: Engineered chicken (Gallus gallus) FABP7 variant selected by Rosetta score, SEQ ID NO. 79 (protein, listed as Gallus gallus) MVEAFCATWKLADSHNMDEALKAWGVGFAIRQVANVTKPTVIISSEGDKVVIRMQSTFKNTEISFKLGEEFDETTADDRNCKSVVTLDGDKLVHVQKWDGKETNVVREIKDGRMVMTVTFGDVVAVRHYEKA | binding to CBD | not THC | 
6 | Plant FABP WT: Wild type FABP from the plant Rhodamnia argentea, SEQ ID NO. 77 (protein, listed as Rhodamnia argentea) MTEFAGVYEFVKDDGKFEEILKAMDVNFLIRKVAGKMNPNTAIDVLDDGKMAFKTITPLKTVEIHFELGKEYENKRLDGTVVKGIVTRDGNKLIQEQMSEPKFKVIRELDGPEKLIVTWMCKDIVCVREYKRIQT | bind | bind | 
